{
  "source": "patent US20210113652A1",
  "about": "“MASPIN-BASED INHIBITION OF OSTEOCLAST ACTIVITY AND PROMOTION OF BONE FORMATION” (Northwestern University, priority 2016, published 2021)",
  "molecules": {"B1": {"name": "Maspin: Maspin (mammary serine protease inhibitor), a serpin protein encoded by the SERPINB5 gene; human wild-type is SEQ ID NO: 1 (protein, listed as Homo sapiens)", "chain": "MDALQLANSAFAVDLFKQLCEKEPLGNVLFSPICLSTSLSLAQVGAKGDTANEIGQVLHFENVKDIPFGFQTVTSDVNKLSSFYSLKLIKRLYVDKSLNLSTEFISSTKRPYAKELETVDFKDKLEETKGQINNSIKDLTDGHFENILADNSVNDQTKILVVNAAYFVGKWMKKFPESETKECPFRLNKTDTKPVQMMNMEATFCMGNIDSINCKIIELPFQNKHLSMFILLPKDVEDESTGLEKIEKQLNSESLSQWTNPSTMANAKVKLSIPKFKVEKMIDPKACLENLGLKHIFSEDTSDFSGMSETKGVALSNVIHKVCLEITEDGGDSIEVPGARILQHKDELNADHPFIYIIRHNKTRNIIFFGKFCSP"}},
  "key": {"[1]": {"system": "mouse tibiae inoculated with mammary tumor cells TM40D or maspin-expressing TM40D-Mp", "experiment": "Osteolytic bone degradation in tumor-inoculated BALB/c mice (X-ray, H&E, TRAP staining of tibiae)", "format": "in vivo", "from_the_text": "FIG. 1. […] Panel A-B: Representative X-ray radiographs of mouse tibiae inoculated with mammary tumor cells TM40D (Panel A) or maspin-expressing TM40D-Mp tumor cells (Panel B), at the end point of 4 weeks following tumor inoculation. Note that mice inoculated with TM40D tumors display severe osteolytic lesion comparing to that with TM40D-Mp cells. Panel E: Summary of osteolytic lesion data (radiography analysis) in 20 mice (10 mice/group) at 2-week and 4-week time points. Panel C: Histological analysis of bone section of tumor-inoculated tibiae by H&E staining. Arrow heads indicate osteoclastic cells. Panel D: TRAP (tartrate-resistant acid phosphatase) staining of osteoclastic cells in bone sections. Arrows indicate osteoclastic cells. Panel F: Summary of TRAP staining data of osteoclasts in mouse tibiae inoculated with TM40D or TM40D-Mp cells."}, "[2]": {"system": "primary bone marrow cells", "experiment": "Osteoclastogenesis in mouse primary bone marrow co-culture assay (TRAP staining)", "format": "cell-based", "conditions": "bone marrow cells co-cultured with TM40D-Mp vs TM40D cells; TRAP-positive cells with 2 or more nuclei", "from_the_text": "FIG. 2. […] Osteoclastogenesis analyses of primary bone marrow cells co-cultured with breast cancer cells with or without maspin expression. (Panel A) Newly isolated primary bone marrow cells only (control). (Panel B) Bone marrow cells co-cultured with mammary tumor TM40D cells. (Panel C) Bone marrow cells co-cultured with maspin-expressing TM40D-Mp cells. (Panel D) Bone marrow cells co-cultured with TM40D-Mp cells and rabbit anti-maspin antibody. (Panel E) Bone marrow cells co-cultured with TM40D-Mp cells and rabbit IgG. (F) Summary of percentage of osteoclasts in co-cultured cells analyzed by TRAP staining. TRAP-positive cells containing 2 or more nuclei are defined as osteoclasts."}, "RAW246.7 cells": {"system": "RAW246.7 cells", "experiment": "Differentiation assay of pre-osteoclastic RAW246.7 cells under RANKL (TRAP staining)", "format": "cell-based", "conditions": "maspin 0.1-10 ug/ml; RANKL 50-100 ng/ml; 8 days", "procedure": "FIG. 3. […] RAW246.7 cells were treated with RANKL (50 -100 ng/ml) and different doses of maspin for 8 days, and cell cultures were used for TRAP staining."}, "[3]": {"system": "mature osteoclasts from RAW246.7", "experiment": "Osteoclast actin ring formation (phalloidin staining)", "format": "cell-based", "conditions": "RANKL 50 ng/ml pre-culture 8 days; 2 hours at 37° C.", "procedure": "FIG. 6. Panels A-C: Maspin inhibits osteoclast actin ring formation. Osteoclasts display osteolytic activity by forming actin rings. RAW246.7 were pre-cultured with RANKL (50 ng/ml) for 8 days to form mature osteoclasts. Cells were first washed with cold PBS twice to disrupt actin rings, warm medium with RANKL were added to cell culture with or without Gst or GST-maspin and cells were then cultured for 2 hours at 37° C. Cells were then washed and stained with phalloidin for actin ring formation. Cells with strong and clear actin ring belts were counted as positive. Five fields of cell staining were counted for each sample and experiments repeated three times. The percentage of cells forming strong and clear actin rings was calculated."}, "calvariae": {"system": "calvariae", "experiment": "New bone formation in ex vivo calvariae organ culture model", "parameters": "species or system BABL/c new-born mice", "conditions": "7 days organ culture", "from_the_text": "FIG. 7. […] Panel A, calvariae were removed from 4 days-old BABL/c new-born mice and cultured in an ex vivo organ culture medium. They were either treated with or without concentrated conditional medium from mouse mammary tumor TM40D cells or maspin-expressing TM40D-Mp cells or with recombinant maspin (GST-Mp) with or without an anti-maspin antibody for 7 days. H&E staining of representative images were shown. Arrows indicate osteoblast cells. Arrowhead indicates new bone area. Panel B, quantitation of the average number of osteoblasts under different treatments listed in Panel A."}, "[4]": {"experiment": "Long-term treatment with maspin in animals", "format": "in vivo", "from_the_text": "Because bone is tissue under constant balancing actions between bone-degrading osteoclasts and bone-forming osteoblasts, inhibiting the formation and activity of osteoclasts will favor or promote osteoblastic activity, thereby promoting new bone formation and bone wound healing. Further, maspin is naturally produced by osteoblasts in the bone microenvironment. This represents a previously unappreciated and unexploited mechanism for osteoblast-produced maspin counteracting the effect of osteclastic activity. […] Therefore, maspin may be delivered to human patients as a non-toxic therapeutic product against various bone diseases."}, "[5]": {"conditions": "overexpression of maspin in vivo; cited from earlier work"}},
  "data": [
    {"molecule": "B1", "values": [
      {"measurement": "osteoclast numbers (TRAP staining) in mouse tibiae", "setting": "[1]; TM40D-Mp vs TM40D tumor cells", "value": "significantly decreased osteoclast numbers"},
      {"measurement": "osteolytic bone degradation (radiography)", "setting": "[1]; tibiae inoculated with TM40D-Mp vs TM40D tumor cells, 2-week and 4-week time points", "value": "inhibits osteolytic bone degradation"},
      {"measurement": "osteoclast formation", "setting": "[2]", "value": "inhibits osteoclast formation"},
      {"measurement": "osteoclast formation under RANKL stimulation", "setting": "RAW246.7 cells", "value": "completely inhibits osteoclast formation"},
      {"measurement": "percentage of cells forming strong and clear actin rings", "setting": "[3]", "value": 53, "unit": "%"},
      {"measurement": "new bone formation", "setting": "calvariae", "value": "promotes new bone formation"},
      {"measurement": "side effects", "setting": "[4]", "value": "no side effects"},
      {"measurement": "toxic side effects", "setting": "[5]", "value": "does not have any observable toxic side effects"}
    ]}
  ]
}
